The values that follow come from US8106168B2, “Metalloproteinase binding proteins” (Dyax Corp., priority 2005, dated 2012).

First the molecules themselves.
B1: M0038-E06: human antibody (Fab, IgG) that binds and inhibits MMP-14; HC SEQ ID NO: 154, LC SEQ ID NO: 155 (antibody, V domains shown)
VH: EVQLLESGGGLVQPGGSLRLSCAASGFTFSPYVMHWVRQAPGKGLEWVSSISPSGGWTYYADSVKGRFTISRDNSKNTLYLQMNSLRAEDMAVYYCARGTGAYGMDVWGQGTTVTVSS
VL: QDIQMTQSPGTLSLSPGDRATLSCGASQLVVSNYIAWYQQKPGQAPRLLMYAGSIRATGIPDRFSGSGSGTDFTLTISRLEPEDFAIYYCQQRSNWPWTFGQGTKVEIK
modifications: Synthetically generated peptide
B2: M0040-A11: human antibody (Fab, IgG) that binds and inhibits MMP-14; HC SEQ ID NO: 164, LC SEQ ID NO: 165 (antibody, V domains shown)
VH: EVQLLESGGGLVQPGGSLRLSCAASGFTFSHYVMFWVRQAPGKGLEWVSRIVPSGGATMYADSVKGRFTISRDNSKNTLYLQMNSLRAEDTAVYYCARDRPLYDSSGYVDYWGQGTLVTVSS
VL: QSALTQPPSASGSPGQSVTISCTGTSSDVGAYNYVSWYQQHPDKAPKLIIYNVNERPSGVPDRFSGSKSGNTASLTVSGLQAEDEADYYCTSYAGSNKIGVSGTGTKVTVL
modifications: Synthetically generated peptide
B3: M0037-D01: human antibody (Fab, IgG) that binds and inhibits MMP-14; HC SEQ ID NO: 152, LC SEQ ID NO: 153 (antibody, V domains shown)
VH: EVQLLESGGGLVQPGGSLRLSCAASGFTFSMYMMIWVRQAPGKGLEWVSSIYPSGGNTMYADSVKGRFTISRDNSKNTLYLQMNSLRAEDTAVYYCATGVLRYFDWDAGSGMDVWGQGTTVTVSSLC
VL: QDIQMTQSPSSLSASVGDRVTITCRASQGIRNDLGWYQQKPGKAPKRLIYVASSLQSGVPSRFSGSGSGTEFTLTISSLQPEDFATYYCLQHNSYPWTFGQGTKVEIK
modifications: Synthetically generated peptide
B4: M0031-C02: human antibody (Fab, IgG) that binds and inhibits MMP-14; HC SEQ ID NO: 144, LC SEQ ID NO: 145 (antibody, V domains shown)
VH: EVQLLESGGGLVQPGGSLRLSCAASGFTFSPYPMGWVRQAPGKGLEWVSSIVSSGGLTLYADSVKGRFTISRDNSKNTLYLQMNSLRAEDTAVYYCARGGRLYDILTGQGAPFDYWGQGTLVTVSS
VL: QDIQMTQSPLSLPVTPGEPASISCRSSQSLLHSNGYYYLDWYLQKPGQSPQLLIYLGSYRASGVPDRFSGSGSGTDFTLKISSVEAEDVGVYYCMQALQTPLTFGGGTRVDIK
modifications: Synthetically generated peptide
B5: M0037-C09: human antibody (Fab, IgG) that binds and inhibits MMP-14; HC SEQ ID NO: 150, LC SEQ ID NO: 151 (antibody, V domains shown)
VH: EVQLLESGGGLVQPGGSLRLSCAASGFTFSHYEMFWVRQAPGKGLEWVSSISPSGGQTHYADSVKGRFTISRDNSKNTLYLQMNSLRAEDTAVYYCATDRTYYDFWSGYGPLWYWGQGTLVTVSS
VL: QDIQMTQSPLSLPVTLGESASVSCRSSQSLLHENGHNYLDWYLQKPGQSPQLLIYLGSNRASGVPDRFSGSGSGTDFTLKISRVEAEDVGVYYCMQSLKTPPTFGPGTKVEIK
modifications: Synthetically generated peptide

T1 sequence (P51512 120-607): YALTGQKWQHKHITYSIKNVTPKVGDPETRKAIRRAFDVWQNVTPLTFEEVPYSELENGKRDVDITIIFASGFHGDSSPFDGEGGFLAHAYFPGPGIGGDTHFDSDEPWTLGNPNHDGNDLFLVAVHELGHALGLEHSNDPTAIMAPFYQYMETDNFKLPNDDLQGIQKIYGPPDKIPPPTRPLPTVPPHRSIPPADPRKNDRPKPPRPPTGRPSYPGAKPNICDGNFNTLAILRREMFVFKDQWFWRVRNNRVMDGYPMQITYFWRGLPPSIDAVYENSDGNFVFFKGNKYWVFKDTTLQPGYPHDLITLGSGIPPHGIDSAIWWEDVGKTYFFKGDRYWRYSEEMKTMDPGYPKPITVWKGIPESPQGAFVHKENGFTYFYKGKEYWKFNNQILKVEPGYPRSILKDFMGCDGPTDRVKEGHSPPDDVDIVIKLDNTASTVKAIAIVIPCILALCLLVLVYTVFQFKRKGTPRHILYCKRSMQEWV

One experiment has as its target T1, MMP-16 (Homo sapiens, UniProt P51512). Nature of the experiment: Cross-reactivity of Fabs and IgGs with MMP-16 (Example 8). The experiment is classed as biochemical. On the set-up: key to MMP-16 (cross-reactivity, class symbol): X: Does not inhibit MMP-16 at [I] = 100 nM level. Conditions: Fab 100 nM; 5 nM MMP16; 30 minutes at 30° C.; 10 μM substrate. The procedure: For the studies summarized in Tables 13 and 14, 100 nM anti-MMP-14 Fab/IgG were incubated with 5 nM MMP16 for 30 minutes at 30° C., 10 μM of substrate was added, and the MMP-16 activity was measured.
For B1, the “MMP-16 (cross-reactivity, class symbol)” value is reported as “X”.

For B2, the “MMP-16 (cross-reactivity, class symbol)” value is on record as “X”.

As to B3, the “MMP-16 (cross-reactivity, class symbol)” value is “X”.

As for B4, the “MMP-16 (cross-reactivity, class symbol)” value is given as “X”.

On to B5, for which the “MMP-16 (cross-reactivity, class symbol)” value was “X”.

Still in this experiment, the particulars now being: IgG 100 nM; 5 nM MMP16; 30 minutes at 30° C.; 10 μM substrate.
Regarding B1, the “MMP-16 (cross-reactivity, class symbol)” value was “X”.

In the case of B2, the “MMP-16 (cross-reactivity, class symbol)” value was “X”.

Consider B3, for which the “MMP-16 (cross-reactivity, class symbol)” value is given as “X”.

Regarding B4, the “MMP-16 (cross-reactivity, class symbol)” value is given as “X”.

In the case of B5, the “MMP-16 (cross-reactivity, class symbol)” value was “X”.

Another experiment deals with T1, MMP-16. Nature of the experiment: Cross-reactivity of anti-MMP-14 IgGs, enzymatic activity: MMP-16. The experiment is classed as biochemical. Conditions: 1 μM anti-MMP-14 IgG. As for the experimental part:
(§1) The cross-reactivity of exemplary anti-MMP-14 IgGs and Fabs with other human MMPs and TACE (TNF-alpha converting enzyme) was examined. MMP and TACE enzymatic activity was monitored in the absence and presence of 1 μM anti-MMP-14 IgG antibody. Inhibition (Y) of activity ranged from approximately 50-80% of the reaction rate observed in the absence of antibody. “X” indicates no inhibition was observed. Cross-reactivity was not determined for MMP-17 because protein activity could not be detected.
(§2) For the studies summarized in Table 12, six anti-MMP-14 IgGs were selected for cross-reactivity testings: M0043-G02, M0040-A06, M0037-D01, M037-C09, M0038-F01, M0033-H07.
Consider B3, for which the “Cross reactivity: inhibition of MMP-16 activity” value is “Y (Inhibition (Y) of activity ranged from approximately 50-80% of the reaction rate observed in the absence of antibody)”.

As for B5, the “Cross reactivity: inhibition of MMP-16 activity” value was “Y (Inhibition (Y) of activity ranged from approximately 50-80% of the reaction rate observed in the absence of antibody)”.

In a further experiment the target is T2, MMP-24 (Homo sapiens, UniProt Q9Y5R2). Nature of the experiment: Cross-reactivity of anti-MMP-14 IgGs, enzymatic activity: MMP-24. The experiment is classed as biochemical. Conditions: 1 μM anti-MMP-14 IgG. As for the experimental part: as §1, §2
T2 sequence (Q9Y5R2 156-645): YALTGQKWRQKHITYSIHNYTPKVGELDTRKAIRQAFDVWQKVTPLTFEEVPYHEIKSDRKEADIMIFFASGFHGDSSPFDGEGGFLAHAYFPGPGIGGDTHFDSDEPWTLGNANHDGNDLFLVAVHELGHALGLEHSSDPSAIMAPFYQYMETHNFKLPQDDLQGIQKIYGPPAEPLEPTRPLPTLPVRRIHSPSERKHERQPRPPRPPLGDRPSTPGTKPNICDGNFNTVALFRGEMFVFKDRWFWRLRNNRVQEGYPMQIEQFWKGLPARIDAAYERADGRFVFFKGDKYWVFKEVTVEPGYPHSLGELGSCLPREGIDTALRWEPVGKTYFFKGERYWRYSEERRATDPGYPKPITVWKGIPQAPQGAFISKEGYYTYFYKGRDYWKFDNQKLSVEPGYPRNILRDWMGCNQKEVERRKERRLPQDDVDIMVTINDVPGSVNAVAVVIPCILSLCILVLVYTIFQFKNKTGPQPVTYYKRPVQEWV
As to B3, the “Cross reactivity: inhibition of MMP-24 activity” value is on record as “Y (Inhibition (Y) of activity ranged from approximately 50-80% of the reaction rate observed in the absence of antibody)”.

As to B5, the “Cross reactivity: inhibition of MMP-24 activity” value is reported as “Y (Inhibition (Y) of activity ranged from approximately 50-80% of the reaction rate observed in the absence of antibody)”.

For another experiment, the target named is T1, MMP-16. Nature of the experiment: Cross-reactivity of Fabs with MMP-16 (Example 9). It counts as biochemical. On the set-up: key: X: Do not inhibit MMP-16 or MMP-24 at [I] = 100 nM level; Y: partially inhibit at [I] = 100 nM level. Conditions: Fab, 100 nM final inhibitor concentration, 5 nM MMP-16. As for the experimental part:
(§3) For the studies summarized in Table 15, 1 μM of anti-MMP-14 Fab/IgG (100 nM final inhibitor concentration) were incubated with 5 nM of MMP-16 or 5 nM of MMP-24 for 30 minutes at 30° C., 10 μM of substrate was added, and the MMP-16 activity was measured.
Consider B1, for which the “MMP-16 (cross-reactivity, class symbol)” value is listed as “X”.

Turning to B2, the “MMP-16 (cross-reactivity, class symbol)” value is reported as “X”.

B3: the “MMP-16 (cross-reactivity, class symbol)” value is on record as “X”.

As for B4, the “MMP-16 (cross-reactivity, class symbol)” value is listed as “X”.

For the molecule B5, the “MMP-16 (cross-reactivity, class symbol)” value is given as “X”.

For another experiment, the target named is T3, MMP-14 (Homo sapiens, UniProt P50281). Nature of the experiment: IC50 for MMP-14 inhibition by Fabs and IgGs. The experiment is classed as biochemical. Conditions: Fab. The procedure:
MMP-14 binding proteins can be characterized in assays that measure their modulatory activity toward MMP-14 or fragments thereof in vitro or in vivo. For example, MMP-14 can be combined with a substrate such as Mca-Pro-Leu-Ala-Cys(Mob)-Trp-Ala-Arg-Dap(Dnp)-NH2 under assay conditions permitting cleavage by MMP-14. The assay is performed in the absence of the MMP-14 binding protein, and in the presence of increasing concentrations of the MMP-14 binding protein. The concentration of binding protein at which 50% of the MMP-14 activity (e.g., binding to the substrate) is inhibited is the IC50 value (Inhibitory Concentration 50%) or EC50 (Effective Concentration 50%) value for that binding protein.
Take B1: the “bind to and inhibit human MMP-14” value was “bind to and inhibit human MMP-14”.

Consider B2, for which the “bind to and inhibit human MMP-14” value is “bind to and inhibit human MMP-14”.

For the molecule B3, the “bind to and inhibit human MMP-14” value is “bind to and inhibit human MMP-14”.

For the molecule B4, the “bind to and inhibit human MMP-14” value is “bind to and inhibit human MMP-14”.

Regarding B5, the “bind to and inhibit human MMP-14” value is “bind to and inhibit human MMP-14”.

A further experiment addresses T3, MMP-14. Nature of the experiment: Selection and phage ELISA screening of anti-MMP-14 Fabs. The experiment is classed as binding. Conditions: Fab from FAB310 phage display library. The essentials: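 Phage ELISA screened 95 clones from each of rounds 2 and 3 against biotinylated MMP-14 (1 μg/ml) captured on streptavidin, in TRIS/CaCl2/NaCl pH 7.5. The clones came from Fab library selections on biotinylated MMP-14, either free or TIMP-2-complexed (500 nM round 1, 100 nM later rounds). Elution used 2.5 μM TIMP-2 followed by TEA.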
In the case of B1, the “bind to human MMP-14” value is given as “bind to human MMP-14”.

With B2, the “bind to human MMP-14” value is “bind to human MMP-14”.

Turning to B3, the “bind to human MMP-14” value is “bind to human MMP-14”.

Take B4: the “bind to human MMP-14” value was “bind to human MMP-14”.

Regarding B5, the “bind to human MMP-14” value was “bind to human MMP-14”.

The next experiment has as its target T2, MMP-24. Nature of the experiment: Cross-reactivity of Fabs with MMP-24 (Example 9). It counts as biochemical. More on the design: key to MMP-24 (cross-reactivity, class symbol): X: Do not inhibit MMP-16 or MMP-24 at [I] = 100 nM level; Y: partially inhibit at [I] = 100 nM level. Conditions: Fab, 100 nM final inhibitor concentration; 5 nM MMP-24. As for the experimental part: as §3
B1: the “MMP-24 (cross-reactivity, class symbol)” value is on record as “X”.

As to B2, the MMP-24 inhibition entry is given as “Y 58% inhibition”.

For the molecule B3, the MMP-24 inhibition result was “Y 71% inhibition”.

Take B4: the MMP-24 inhibition result is reported as “Y 54% inhibition”.

As to B5, the MMP-24 inhibition entry is “Y 72% inhibition”.
